Data taken from the supplement of paper PMC12636428.

What follows are sequences tested on Saccharomyces cerevisiae (assay: transcriptional activation domain activity (GFP:mCherry ratio, weighted mean of sorted bins, harmonized to initial dataset scale) (arbitrary fluorescence ratio units); higher = stronger transcriptional activation). Settings: beta-estradiol 1 µM; induction time 4 h.
Outline: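 Yeast diploids with a GFP reporter received barcoded protein tiles, fused to an estradiol-inducible synthetic transcription factor, at the URA3 locus. Cultures were diluted 1:5 into SC holding 1 uM beta-estradiol, incubated 4 hours at 30 °C, sorted into 8 bins on GFP:mCherry ratio, and sequenced for barcodes, with tiles under 50 reads discarded. Activation activity values come from the read-weighted mean of bin median fluorescence, averaged across barcodes and linearly placed on the initial dataset scale.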

First: MAMGLMCKACLLTPQHFLPLLWPSYPRPFFFFFFFYYSYCCSCCDCISIFGLN
Second: RYEAQGGGYKDTGDNKNKAKKGTPERKTKEDGKEEEEKGDKKEEAKKEEGKKE
The “transcriptional activation domain activity” value of the first is higher: 43400 for the first, 22800 for the second.

Compared with “HFPKRSFRHWVGLMFFSFLTCCTLLLQFRAAVTLTVNSHLPWITRSGLWYLVL”, “SSDEEEEPRPKGKGKGKAAVVKAKPKPVAEKGNNAGGKRKRDADSEADGGAAK” is lower in “transcriptional activation domain activity” value: 68800 for the first, 44000 for the second.

Going from “MSIVLLCSHIFYTLLGSRRFIAACFFWSLSVPSHLSHICLSCIFLLLSFFLLC” to “VYILSFYLPSLFPSFFTHSLFFFLHLWSCSTSSQTNMRLPTLAFISLPFVLTF”, the “transcriptional activation domain activity” value falls from 53900 to 53600.

Compared with “AAAAREKAEAERKEKAEKEERERLEREKREVEAERKKVAAAAARAEKEKAKAA”, “QARQAQEPAMSQKDLATKVNEKQSVINDYESGRAVPNQQLLAKLERALGVKLR” is higher in “transcriptional activation domain activity” value: 13400 for the first, 51300 for the second.

Going from “MASVVCCTELWCLFGLDVCFFPFSLFALPLVLSPSLFPLSSLSFIIFLFFPVS” to “MHASFIFLSSTSGVIHTYILYLDLVAYFLLSLGGFVLIIGFWRWGFCCFFLPS”, the “transcriptional activation domain activity” value rises from 54700 to 69100.

Compared with “VYCQVLLNHKYRAYGGGYRAETIIYSFGRLSDLLYFVPVVVGRMEMRMGLTLK”, “SPKKAAAPKKPAAKKATEAKKASVKPKAAKETKEKKEAKPKAAKAAKPAAAAP” is lower in “transcriptional activation domain activity” value: 52200 for the first, 28100 for the second.

Going from “MTLGLMAFSEYNFADYACLFLFSSFLLFYLIFPIFSFLLLCVYFFFVSFHLYA” to “AARVSDYSMAQFRFLLKFLLVHGRWNYVRICKYTVGTFWKELLFYLTQALFQR”, the “transcriptional activation domain activity” value rises from 27600 to 48200.

First: MMGLRELHAASREFAMLFWREPRLDLALFLLLFLFFFVLFLFFCLFFFFCLVF
Second: MIPGVLLECSFVEFLSFLLDLLLLTLLWIMRLMMMLLLPLFLLLLLIFVYCCV
The “transcriptional activation domain activity” value of the first is lower: 15100 for the first, 39500 for the second.

First: MSFFLYYFFYLLQGVIIHIIYTYISLFIPLHSFIIISFIFFFFIIFTLFFLLF
Second: EAEEGGAGKRKAGSPEDTEQQQESSEKSTESNHKPATKRSTVSERPSKGKRRS
The “transcriptional activation domain activity” value of the first is higher: 70800 for the first, 11500 for the second.

Compared with “HFNSVTTTYFKDGQSFYDILKCILPCIVDFLPKNSILVHCICAYLHFRILVGL”, “DANDGRRTLLVVLGDHGMTAAGNHGGASAGETSAALVLASPLFSTVASAPARR” is lower in “transcriptional activation domain activity” value: 53500 for the first, < 6570 for the second.

Going from “DSSAETGPGEDPSLVLPGLHMTLMRRFALKSKDRDRVSVEILGLLIRVLGVLG” to “MAETTTSDSGASSSTALQRGKACLRCRKRKMRCDGQKPACSQCVKARKTDACE”, the “transcriptional activation domain activity” value falls from 59800 to 34100.

First: FFRRALNFLFDIALVPMIVCSSYAIFEVPSNVFLKRLRPSLWLSLLMLLWGIM
Second: MYVGGVFSVSLFESVCYFVIFFSSLDLLLLLLLLFFSFLFFSFLFFFFSLVPS
The “transcriptional activation domain activity” value of the first is higher: 69000 for the first, 44800 for the second.

Compared with “ASQFPWAQIEITWRCLTYLCFDSFLELPQYWMLRQKFLVEHALLAYAARYCLV”, “MMLVQSIPVSRDVILGVLLRLLAPTVFLSSVVLALLLVSTLCKIPKQGRLRAW” is higher in “transcriptional activation domain activity” value: 54100 for the first, 64600 for the second.

Going from “LLLVHGRWSYQRVADMHSNFFYKNVIWTFALFWYLPFNSFDATYLYQYTFILL” to “WTGWEGGRYLPFFFFPFFFFFATCCFSLFMILFFVFFFPGRISISFRLLLFFL”, the “transcriptional activation domain activity” value falls from 47600 to 43000.

First: CPELYQTHLQITGIITIDTYFSFNDYDAWVQLRDVLDLWLGRAWVFNVVIWKY
Second: LLILLLAFKKTSKEDPYEAIRLMSLAIGDQYAQGPDRFRLSCQWAVLARMISH
The “transcriptional activation domain activity” value of the first is higher: 61500 for the first, 38400 for the second.

Going from “SGSGAEGASGTEHRRRTSTRGRGRGRGRGGRTGRGGRTANDAEGAEGAEADAS” to “GDDEETQGNATKNILDDWEGAPESFVCQEQRQTGGRVAAKTQRLLSFSIHDEL”, the “transcriptional activation domain activity” value falls from 27900 to 23100.

Going from “YDILKCVLPCIVQLLPRNSPLVHCIRAYQCYRIMIGLQCMTERRLKHLQELIK” to “SSSSRGKGGKEKGKGKVAGEGDGDGEEEQGEQQQQQQTSLVEAVARARDACRL”, the “transcriptional activation domain activity” value falls from 44800 to 27200.

First: YSIQVFMVPQLAICKVDSIGNVIGGQGGCYNLIPVFDWVRRCVVSIFLVFMVA
Second: LVLVAILGIVIPLDGFFGYLLTSLAIIWCSYSSSSMFTVVGRMSSMKWLVAYP
The “transcriptional activation domain activity” value of the first is higher: 71500 for the first, 57000 for the second.

Compared with “MSGFVRLLFTFDFRNVLVDILVLHIPLYLFPLFVLSEEFLLLFSFCLFVFLSF”, “YAILYFLFFGAWGLRIMSHLPSWWYNCPQFWIDYPHWQMTPELKCYYLMQASY” is higher in “transcriptional activation domain activity” value: 31000 for the first, 73600 for the second.

First: MRLNICKDLWIHSAFRMLSDISAASLFLVSRSYFIIIFTVASLGYTRMLSLYH
Second: FILGYYWGDARLFGLSVRFMSLFSWFRVVHRVLPRLLPMRFKGPGKYVVTYDA
The “transcriptional activation domain activity” value of the first is lower: 51900 for the first, 58500 for the second.

Going from “ADKKAKKAAPPPKPESSSSSDSSESDSDAPKAAATVKAAAAAVKKAGKKAVAS” to “ALDFGLVVRHTTVQYPVPLRFGLLNGNFSFMPLIINSWNMISYILSIYSLVLL”, the “transcriptional activation domain activity” value rises from 60900 to 64200.
